Results published in PMC11077072.
Where two headings read alike, the source gives them in different places.

Experiments:
[1] = molecular target: T1, LbCas12a (Cas12a, NEB M0653T) (Lachnospiraceae bacterium, UniProt A0A5S8WF58 1-1228); experiment: activation kinetics
[2] = molecular target: T1, LbCas12a (Cas12a, NEB M0653T); experiment: activation kinetics; remark: listed apart in the source

B1: crRNA-A2 + A2 ssDNA target (mixed)
RNA: UAAUUUCUACUAAGUGUAGAUCAUGCCAAUGCGCGACAUUC
DNA: TTCTTCGGAATGTCGCGCATTGGCATGGAAGTCACACCTT
- Kd [1]: 1.1 ± 0.4 nM

B2: crRNA-A2 + A2 ssDNA-t target (mixed)
RNA: UAAUUUCUACUAAGUGUAGAUCAUGCCAAUGCGCGACAUUC
DNA: TCGGAATGTCGCGCATTGGCATGGAAGTCACACCTT
- Kd [1]: 1.4 ± 0.7 nM

B3: crRNA-A19 + A19 ssDNA target (mixed)
RNA: UAAUUUCUACUAAGUGUAGAUGACAUUUUGCUCUCAAGCUG
DNA: ATTGAACCAGCTTGAGAGCAAAATGTCTGGTAAAGGCCAA
- Kd [2]: 0.36 ± 0.26 nM

B4: crRNA-A19 + A19 ssDNA-t target (mixed)
RNA: UAAUUUCUACUAAGUGUAGAUGACAUUUUGCUCUCAAGCUG
DNA: AACCAGCTTGAGAGCAAAATGTCTGGTAAAGGCCAA
- Kd [2]: 0.3 ± 0.25 nM
